What was measured:
[1] = target: T1, hDicer PPC cassette (Homo sapiens, UniProt Q9UPY3 753-1068); experiment: EMSA; EMSA: 20 mM Tris-HCl pH 7.4, 100 mM KCl, 30 min on ice; 5% or 10% native PAGE at 4 C in 1x TBE; G-rich oligos folded in 50 mM KCl; conditions: protein: recombinant, tags: N-terminal 6xHis (pMCSG7), label: 5'-32P
T1 sequence: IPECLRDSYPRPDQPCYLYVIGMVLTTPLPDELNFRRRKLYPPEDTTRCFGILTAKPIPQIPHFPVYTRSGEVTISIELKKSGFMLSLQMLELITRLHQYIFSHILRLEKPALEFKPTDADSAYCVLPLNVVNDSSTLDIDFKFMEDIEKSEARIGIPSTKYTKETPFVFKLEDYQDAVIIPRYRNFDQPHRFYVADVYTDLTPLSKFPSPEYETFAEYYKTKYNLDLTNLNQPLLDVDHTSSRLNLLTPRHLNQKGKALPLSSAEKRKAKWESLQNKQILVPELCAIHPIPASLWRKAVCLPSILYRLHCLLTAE

[2] = target: T2, hDicer (Homo sapiens, UniProt Q9UPY3 1-1922); experiment: EMSA; 250 nM hDicer; EMSA: 20 mM Tris-HCl pH 7.4, 100 mM KCl, 30 min on ice; 5% or 10% native PAGE at 4 C in 1x TBE; G-rich oligos folded in 50 mM KCl; conditions: protein: recombinant; label: 5'-32P; G4 dimer of bimolecular G-quadruplexes (PDB 2M18)
T2 sequence (Q9UPY3 whole entry): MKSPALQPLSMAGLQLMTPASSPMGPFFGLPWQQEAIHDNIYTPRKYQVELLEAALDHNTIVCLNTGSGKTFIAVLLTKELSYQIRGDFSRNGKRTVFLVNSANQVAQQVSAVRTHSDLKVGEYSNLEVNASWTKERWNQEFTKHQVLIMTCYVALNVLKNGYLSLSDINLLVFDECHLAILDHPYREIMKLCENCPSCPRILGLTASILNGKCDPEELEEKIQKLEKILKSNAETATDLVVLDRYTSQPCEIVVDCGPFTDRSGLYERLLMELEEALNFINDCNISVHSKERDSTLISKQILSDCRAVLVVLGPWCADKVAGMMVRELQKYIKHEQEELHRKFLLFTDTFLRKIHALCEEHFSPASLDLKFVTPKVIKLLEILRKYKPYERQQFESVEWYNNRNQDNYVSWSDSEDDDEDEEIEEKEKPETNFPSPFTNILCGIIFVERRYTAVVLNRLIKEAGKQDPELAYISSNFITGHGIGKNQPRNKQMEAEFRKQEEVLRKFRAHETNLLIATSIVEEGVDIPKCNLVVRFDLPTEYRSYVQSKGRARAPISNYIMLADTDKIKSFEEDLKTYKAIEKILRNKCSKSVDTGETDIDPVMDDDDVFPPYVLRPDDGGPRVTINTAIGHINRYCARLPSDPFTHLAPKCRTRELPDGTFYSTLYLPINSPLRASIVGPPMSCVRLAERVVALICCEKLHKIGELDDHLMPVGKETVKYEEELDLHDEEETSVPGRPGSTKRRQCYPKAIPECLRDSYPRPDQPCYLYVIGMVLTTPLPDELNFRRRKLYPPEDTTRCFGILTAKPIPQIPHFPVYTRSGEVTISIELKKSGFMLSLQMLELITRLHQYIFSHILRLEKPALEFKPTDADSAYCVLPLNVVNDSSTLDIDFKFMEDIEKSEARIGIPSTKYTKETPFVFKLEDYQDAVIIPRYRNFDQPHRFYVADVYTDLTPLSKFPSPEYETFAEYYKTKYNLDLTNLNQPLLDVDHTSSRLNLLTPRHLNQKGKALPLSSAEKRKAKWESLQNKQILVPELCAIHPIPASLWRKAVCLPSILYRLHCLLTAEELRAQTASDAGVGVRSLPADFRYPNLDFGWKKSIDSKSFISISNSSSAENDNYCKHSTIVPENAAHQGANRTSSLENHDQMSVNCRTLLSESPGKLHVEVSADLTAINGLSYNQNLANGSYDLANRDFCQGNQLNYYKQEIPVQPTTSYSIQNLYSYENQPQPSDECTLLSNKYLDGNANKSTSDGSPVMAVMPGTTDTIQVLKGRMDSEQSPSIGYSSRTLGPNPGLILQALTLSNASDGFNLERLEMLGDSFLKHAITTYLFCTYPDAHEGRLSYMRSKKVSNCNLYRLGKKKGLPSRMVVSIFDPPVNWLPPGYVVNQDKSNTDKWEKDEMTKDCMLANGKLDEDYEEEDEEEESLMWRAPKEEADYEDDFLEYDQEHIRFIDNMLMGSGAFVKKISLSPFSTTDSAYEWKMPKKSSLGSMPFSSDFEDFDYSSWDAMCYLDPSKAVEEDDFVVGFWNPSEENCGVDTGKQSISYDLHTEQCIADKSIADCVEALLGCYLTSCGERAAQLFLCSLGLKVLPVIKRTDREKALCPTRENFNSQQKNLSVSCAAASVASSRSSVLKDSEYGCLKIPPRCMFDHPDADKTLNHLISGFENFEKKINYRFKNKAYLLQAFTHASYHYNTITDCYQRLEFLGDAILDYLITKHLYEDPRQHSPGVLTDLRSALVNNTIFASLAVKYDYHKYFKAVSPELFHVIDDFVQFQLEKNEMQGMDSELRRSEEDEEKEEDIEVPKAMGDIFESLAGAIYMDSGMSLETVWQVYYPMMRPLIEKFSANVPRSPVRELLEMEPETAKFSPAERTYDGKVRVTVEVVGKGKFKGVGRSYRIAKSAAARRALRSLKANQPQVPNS

[3] = target: T2, hDicer; experiment: EMSA; 100, 250 nM hDicer; EMSA: 20 mM Tris-HCl pH 7.4, 100 mM KCl, 30 min on ice; 5% or 10% native PAGE at 4 C in 1x TBE; G-rich oligos folded in 50 mM KCl; conditions: protein: recombinant; label: 5'-32P; G4

Binder: UCGAAGUAUUCCGCGUACGUG (ssRNA) [LIN21]
- Kd [1]: ~46 nM

Binder: GGGUUAGGGU (structured_RNA) [TER10]
- binding result [2]: binds

Binder: GGGGTTTTGGGG (structured_DNA) [G4T4G4]
- Kd ([1]; G4 bimolecular, 2 strand copies (PDB 1JPQ)): ~369 nM

B1: pre-mir-21 (structured_RNA)
RNA: AGCUUAUCAGACUGAUGUUGACUGUUGAAUCUCAUGGCAACACCAGUCGAUGGGCUGU
- Kd ([1]; hairpin): ~205 nM

Binder: GGGGUUUUGGGG (structured_RNA) [G4U4G4]
- Kd ([1]; G4): ~10 nM

Binder: GGAGGUUUUGGAGG (structured_RNA) [QU14]
- binding result [3]: binds

— paper PMC8038994, “RNA and DNA G-quadruplexes bind to human dicer and inhibit its activity”
